# Positions of bridges follow the written chain, without caps; N, C: chain ends. No end group written: not given here. COCH2 = acetyl group that carries the bridge
# Biological target: T1, Recombinant Human FGFR1 alpha (IIIc) Fc Chimera Protein (Homo sapiens, UniProt P11362)
# T1 construct: purchased R&D systems 658-FR-050
# Experiment: ELISA binding affinity of enzymatically synthesized peptide to FGFR
# Details: ELISA luminescence signal at 10 nmol/L peptide, SEQ ID NO: 239 standardized to 1; enzyme synthesis product
# Outline: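 Cell-free PUREfrex-translated cyclic peptides (Myc/HiBiT-tagged, quantified by HiBiT luminescence) bound 3 h at room temperature to immobilized FGFR1α(IIIc)-Fc, detected with anti-Myc and chemiluminescence. FGFR-specific signal at 10 nmol/L normalized to a reference cyclic peptide and graded A–D.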
# T1 sequence (P11362 with tags, fused parts or gaps limits assumed): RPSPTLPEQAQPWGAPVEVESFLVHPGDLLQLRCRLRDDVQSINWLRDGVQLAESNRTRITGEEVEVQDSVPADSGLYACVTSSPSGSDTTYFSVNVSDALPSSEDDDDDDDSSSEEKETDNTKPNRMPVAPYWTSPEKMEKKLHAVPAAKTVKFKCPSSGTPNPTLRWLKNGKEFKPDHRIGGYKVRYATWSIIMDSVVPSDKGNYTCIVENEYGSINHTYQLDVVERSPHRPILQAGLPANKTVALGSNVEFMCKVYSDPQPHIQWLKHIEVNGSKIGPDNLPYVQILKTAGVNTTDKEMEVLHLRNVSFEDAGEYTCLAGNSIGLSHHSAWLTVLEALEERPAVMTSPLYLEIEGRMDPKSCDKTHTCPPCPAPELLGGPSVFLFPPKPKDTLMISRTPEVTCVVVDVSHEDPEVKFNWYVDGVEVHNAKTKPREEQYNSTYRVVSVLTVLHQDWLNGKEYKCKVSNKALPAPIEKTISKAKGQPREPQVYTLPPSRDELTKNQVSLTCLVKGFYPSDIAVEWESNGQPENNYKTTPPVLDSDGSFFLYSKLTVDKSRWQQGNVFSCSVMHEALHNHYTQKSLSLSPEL
row,Evaluation result of binding affinity to FGFR,Substance
1,A (0.7 or more),156 (ICVYTFDAHAHQLHAALTK(COCH2)I; thioether 2-19 (inferred)) [compound 156]
2,A (0.7 or more),157 (ICVYTFDAHAHTLHAALTK(COCH2)I; thioether 2-19 (inferred)) [compound 157]
3,A (0.7 or more),158 (ICVYTFDAHAHDLHAALTK(COCH2)I; thioether 2-19 (inferred)) [compound 158]
4,A (0.7 or more),159 (ICVYTFDAHAHELHAALTK(COCH2)I; thioether 2-19 (inferred)) [compound 159]
5,C (0.1 or more and less than 0.5),160 (ICVYTFDAHAHRLHAALTK(COCH2)I; thioether 2-19 (inferred)) [compound 160]
6,C (0.1 or more and less than 0.5),161 (ICVYTFDAHAHHLHAALTK(COCH2)I; thioether 2-19 (inferred)) [compound 161]
7,A (0.7 or more),162 (ICVYTFDAHAHSAHAALTK(COCH2)I; thioether 2-19 (inferred)) [compound 162]
8,C (0.1 or more and less than 0.5),163 (ICVYTFDAHAHSGHAALTK(COCH2)I; thioether 2-19 (inferred)) [compound 163]
9,C (0.1 or more and less than 0.5),164 (ICVYTFDAHAHSPHAALTK(COCH2)I; thioether 2-19 (inferred)) [compound 164]
10,A (0.7 or more),165 (ICVYTFDAHAHSIHAALTK(COCH2)I; thioether 2-19 (inferred)) [compound 165]
11,A (0.7 or more),166 (ICVYTFDAHAHSVHAALTK(COCH2)I; thioether 2-19 (inferred)) [compound 166]
12,A (0.7 or more),167 (ICVYTFDAHAHSFHAALTK(COCH2)I; thioether 2-19 (inferred)) [compound 167]
13,A (0.7 or more),168 (ICVYTFDAHAHSYHAALTK(COCH2)I; thioether 2-19 (inferred)) [compound 168]
14,C (0.1 or more and less than 0.5),169 (ICVYTFDAHAHSWHAALTK(COCH2)I; thioether 2-19 (inferred)) [compound 169]
15,C (0.1 or more and less than 0.5),170 (ICVYTFDAHAHSQHAALTK(COCH2)I; thioether 2-19 (inferred)) [compound 170]
16,B (0.5 or more and less than 0.7),171 (ICVYTFDAHAHSSHAALTK(COCH2)I; thioether 2-19 (inferred)) [compound 171]
17,B (0.5 or more and less than 0.7),172 (ICVYTFDAHAHSTHAALTK(COCH2)I; thioether 2-19 (inferred)) [compound 172]
18,C (0.1 or more and less than 0.5),173 (ICVYTFDAHAHSEHAALTK(COCH2)I; thioether 2-19 (inferred)) [compound 173]
19,C (0.1 or more and less than 0.5),174 (ICVYTFDAHAHSRHAALTK(COCH2)I; thioether 2-19 (inferred)) [compound 174]

row,Evaluation result of binding affinity to FGFR,Substance
1,B (0.5 or more and less than 0.7),175 (ICVYTFDAHAHSHHAALTK(COCH2)I; thioether 2-19 (inferred)) [compound 175]
2,A (0.7 or more),176 (ICVYTFDAHAHSLAAALTK(COCH2)I; thioether 2-19 (inferred)) [compound 176]
3,A (0.7 or more),177 (ICVYTFDAHAHSLGAALTK(COCH2)I; thioether 2-19 (inferred)) [compound 177]
4,A (0.7 or more),178 (ICVYTFDAHAHSLPAALTK(COCH2)I; thioether 2-19 (inferred)) [compound 178]
5,B (0.5 or more and less than 0.7),179 (ICVYTFDAHAHSLLAALTK(COCH2)I; thioether 2-19 (inferred)) [compound 179]
6,B (0.5 or more and less than 0.7),180 (ICVYTFDAHAHSLIAALTK(COCH2)I; thioether 2-19 (inferred)) [compound 180]
7,B (0.5 or more and less than 0.7),181 (ICVYTFDAHAHSLVAALTK(COCH2)I; thioether 2-19 (inferred)) [compound 181]
8,C (0.1 or more and less than 0.5),182 (ICVYTFDAHAHSLFAALTK(COCH2)I; thioether 2-19 (inferred)) [compound 182]
9,B (0.5 or more and less than 0.7),183 (ICVYTFDAHAHSLYAALTK(COCH2)I; thioether 2-19 (inferred)) [compound 183]
10,C (0.1 or more and less than 0.5),184 (ICVYTFDAHAHSLWAALTK(COCH2)I; thioether 2-19 (inferred)) [compound 184]
11,A (0.7 or more),185 (ICVYTFDAHAHSLNAALTK(COCH2)I; thioether 2-19 (inferred)) [compound 185]
12,A (0.7 or more),186 (ICVYTFDAHAHSLQAALTK(COCH2)I; thioether 2-19 (inferred)) [compound 186]
13,A (0.7 or more),187 (ICVYTFDAHAHSLSAALTK(COCH2)I; thioether 2-19 (inferred)) [compound 187]
14,A (0.7 or more),188 (ICVYTFDAHAHSLTAALTK(COCH2)I; thioether 2-19 (inferred)) [compound 188]
15,A (0.7 or more),189 (ICVYTFDAHAHSLDAALTK(COCH2)I; thioether 2-19 (inferred)) [compound 189]
16,A (0.7 or more),190 (ICVYTFDAHAHSLEAALTK(COCH2)I; thioether 2-19 (inferred)) [compound 190]
17,B (0.5 or more and less than 0.7),191 (ICVYTFDAHAHSLRAALTK(COCH2)I; thioether 2-19 (inferred)) [compound 191]
18,A (0.7 or more),192 (ICVYTFDAHAHSLHGALTK(COCH2)I; thioether 2-19 (inferred)) [compound 192]
19,C (0.1 or more and less than 0.5),193 (ICVYTFDAHAHSLHLALTK(COCH2)I; thioether 2-19 (inferred)) [compound 193]

row,Evaluation result of binding affinity to FGFR,Substance
1,C (0.1 or more and less than 0.5),194 (ICVYTFDAHAHSLHIALTK(COCH2)I; thioether 2-19 (inferred)) [compound 194]
2,C (0.1 or more and less than 0.5),195 (ICVYTFDAHAHSLHVALTK(COCH2)I; thioether 2-19 (inferred)) [compound 195]
3,C (0.1 or more and less than 0.5),196 (ICVYTFDAHAHSLHFALTK(COCH2)I; thioether 2-19 (inferred)) [compound 196]
4,C (0.1 or more and less than 0.5),197 (ICVYTFDAHAHSLHYALTK(COCH2)I; thioether 2-19 (inferred)) [compound 197]
5,C (0.1 or more and less than 0.5),198 (ICVYTFDAHAHSLHWALTK(COCH2)I; thioether 2-19 (inferred)) [compound 198]
6,A (0.7 or more),199 (ICVYTFDAHAHSLHNALTK(COCH2)I; thioether 2-19 (inferred)) [compound 199]
7,A (0.7 or more),200 (ICVYTFDAHAHSLHQALTK(COCH2)I; thioether 2-19 (inferred)) [compound 200]
8,A (0.7 or more),201 (ICVYTFDAHAHSLHSALTK(COCH2)I; thioether 2-19 (inferred)) [compound 201]
9,A (0.7 or more),202 (ICVYTFDAHAHSLHTALTK(COCH2)I; thioether 2-19 (inferred)) [compound 202]
10,A (0.7 or more),203 (ICVYTFDAHAHSLHDALTK(COCH2)I; thioether 2-19 (inferred)) [compound 203]
11,A (0.7 or more),204 (ICVYTFDAHAHSLHEALTK(COCH2)I; thioether 2-19 (inferred)) [compound 204]
12,A (0.7 or more),205 (ICVYTFDAHAHSLHRALTK(COCH2)I; thioether 2-19 (inferred)) [compound 205]
13,A (0.7 or more),206 (ICVYTFDAHAHSLHHALTK(COCH2)I; thioether 2-19 (inferred)) [compound 206]
14,C (0.1 or more and less than 0.5),207 (ICVYTFDAHAHSLHAILTK(COCH2)I; thioether 2-19 (inferred)) [compound 207]
15,C (0.1 or more and less than 0.5),208 (ICVYTFDAHAHSLHAVLTK(COCH2)I; thioether 2-19 (inferred)) [compound 208]
16,C (0.1 or more and less than 0.5),209 (ICVYTFDAHAHSLHASLTK(COCH2)I; thioether 2-19 (inferred)) [compound 209]
17,C (0.1 or more and less than 0.5),210 (ICVYTFDAHAHSLHAAITK(COCH2)I; thioether 2-19 (inferred)) [compound 210]
18,C (0.1 or more and less than 0.5),211 (ICVYTFDAHAHSLHAAVTK(COCH2)I; thioether 2-19 (inferred)) [compound 211]
19,C (0.1 or more and less than 0.5),212 (ICVYTFDAHAHSLHAAFTK(COCH2)I; thioether 2-19 (inferred)) [compound 212]
